From patent US20070231329A1 come the findings set out here.

The target of test [1] is extracellular region of human V158 FcγRIIIa with C-terminal 6x His-tag and GST-tag (human) (UniProt P08637). The test can be described thus: SPR. On the technique in general: In SPR one partner is held on a chip, and binding of the other changes the refractive index at the surface.
Test [2] has as its target extracellular region of human F158 FcγRIIIa with C-terminal 6x His-tag and GST-tag (human) (UniProt P08637). The test can be described thus: SPR, receptor immobilized, antibody flowed.
In test [3] the target is extracellular region of human V158 FcγRIIIa with C-terminal 6x His-tag and GST-tag (human) (UniProt P08637). The test is described as follows: SPR, His-tagged receptor immobilized, antibody flowed.
In test [4] the target is FcγRIIIa on human PBMCs expressing heterozygous V158/F158 FcγRIIIa (human) (UniProt P08637). The test can be described thus: cell-based or functional assay.

Chain of extracellular region of human F158 FcγRIIIa with C-terminal 6x His-tag and GST-tag (human) (P08637 17-208, chain 1 of 2): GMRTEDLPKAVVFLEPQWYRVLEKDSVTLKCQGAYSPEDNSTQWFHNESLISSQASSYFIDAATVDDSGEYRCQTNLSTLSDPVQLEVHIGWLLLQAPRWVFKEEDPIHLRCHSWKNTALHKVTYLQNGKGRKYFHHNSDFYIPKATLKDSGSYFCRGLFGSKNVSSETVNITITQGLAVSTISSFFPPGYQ
Chain of extracellular region of human F158 FcγRIIIa with C-terminal 6x His-tag and GST-tag (human) (P08515 whole entry, chain 2 of 2, further chain): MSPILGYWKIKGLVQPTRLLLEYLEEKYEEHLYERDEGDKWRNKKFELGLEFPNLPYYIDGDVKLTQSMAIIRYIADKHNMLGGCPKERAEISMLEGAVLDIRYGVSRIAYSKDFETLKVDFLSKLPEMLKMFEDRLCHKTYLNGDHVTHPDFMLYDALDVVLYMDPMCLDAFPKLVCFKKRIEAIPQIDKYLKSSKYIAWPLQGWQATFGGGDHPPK
Chain of extracellular region of human V158 FcγRIIIa with C-terminal 6x His-tag and GST-tag (human) (P08637 17-208 F176V, chain 1 of 2): as the sequence (P08637 17-208, chain 1 of 2) above, with F160V counted along it
Chain of extracellular region of human V158 FcγRIIIa with C-terminal 6x His-tag and GST-tag (human) (P08515 whole entry, chain 2 of 2, further chain): as the sequence (P08515 whole entry, chain 2 of 2, further chain) above

Turning to E272R alemtuzumab (antibody), in test [1], the Fold WT V158 FcγRIIIa stood at 1.38 fold. The same measure, in the same setting: next, E283H alemtuzumab (antibody): 2.31 fold.

Turning to I332E alemtuzumab (antibody), the Kd (commonly the equilibrium constant for the complex coming apart) in test [2] came out at 72 nM; in test [3] it was 31 nM. As for S239D/I332E alemtuzumab (antibody), in test [4], the ADCC, DoHH-2 target cells: EC50 was 3 ng/mL; the ADCC, DoHH-2 target cells: Fold WT was 3.3 fold; the ADCC, DoHH-2 target cells: log (EC50) is 0.49 log (ng/ml).

Turning to S298A alemtuzumab (antibody), the results for the Kd in test [2] and in test [3] were 285 nM and 52 nM, respectively.

As for “S298A/E333A/K334A alemtuzumab (antibody)”, the Kd in test [2] stood at 156 nM; in test [3], 39 nM. On to S304T alemtuzumab (antibody), for which the Fold WT V158 FcγRIIIa in test [1] came out at 12.8 fold. Turning to V264I alemtuzumab (antibody), the values for the Kd in test [2] and in test [3] were 550 nM and 64 nM, respectively. In turn, V264I/I332E alemtuzumab (antibody) yielded an ADCC, DoHH-2 target cells: EC50 in test [4] of 4 ng/mL. In addition, the ADCC, DoHH-2 target cells: log (EC50) in test [4] was 0.6 log (ng/ml). Moreover, the values for the Kd in test [2] and in test [3] were 52 nM and 17 nM, respectively. In turn, V284E alemtuzumab (antibody) displayed a Fold WT V158 FcγRIIIa in test [1] of 1.51 fold.
